Source: PMC6831629

Biological target: myc-tagged Trpc1 (transient receptor potential canonical subfamily member 1) (X. laevis)
Assay: co-IP; mRNAs co-injected into 4-cell stage X. laevis embryos (200 pg/cell each); 12 animal caps (stage 8-9) lysed in SOFT buffer (50 mM Tris pH 7.4, 100 mM NaCl, 5 mM EDTA, 0.05% NP40, 1% Triton X100); 120 µg protein precipitated with anti-HA or anti-Myc antibodies and A/G protein beads; blots with anti-HA and anti-Myc; animal caps with or without 2 µg/mL noggin for 15 min before lysis

- fold change of the co-immunoprecipitated fraction with noggin against without noggin: 1.64 fold
Substance: HA-tagged BMP receptor type II, full length
